This data set addresses T1, phiC31 integrase (Streptomyces phage phiC31) (UniProt Q9T221).
T1 sequence: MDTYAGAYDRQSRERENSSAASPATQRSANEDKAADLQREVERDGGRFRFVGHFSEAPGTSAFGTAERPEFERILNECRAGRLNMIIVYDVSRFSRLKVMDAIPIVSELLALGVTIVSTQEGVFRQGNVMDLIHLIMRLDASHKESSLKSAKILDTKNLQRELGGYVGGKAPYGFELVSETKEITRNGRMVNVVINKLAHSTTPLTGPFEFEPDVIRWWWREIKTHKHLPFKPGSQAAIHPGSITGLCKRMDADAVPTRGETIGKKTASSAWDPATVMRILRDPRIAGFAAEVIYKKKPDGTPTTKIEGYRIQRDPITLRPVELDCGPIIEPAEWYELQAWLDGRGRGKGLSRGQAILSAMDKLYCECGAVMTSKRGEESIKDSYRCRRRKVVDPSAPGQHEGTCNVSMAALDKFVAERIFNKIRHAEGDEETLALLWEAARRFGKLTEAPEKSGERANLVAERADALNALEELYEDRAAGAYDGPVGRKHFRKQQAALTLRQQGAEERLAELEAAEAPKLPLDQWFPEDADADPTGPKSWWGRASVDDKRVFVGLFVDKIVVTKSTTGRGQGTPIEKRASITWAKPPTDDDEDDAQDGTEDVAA
The data set can be described thus: cell_activity.

As to “phiC31 attB (500 bp BamHI-XbaI fragment of pHS21)”, for the setting “S. pombe FY527attPx2, circular pLT50 plus pLT43, 63 without integrase”, the activity (Ura+ transformants per 10^7 cells) is 2560.
Turning to “phiC31 attP 84 bp (ApaI-SacI fragment of pHS282)”, where the note is “S. pombe FY527attPx2, linear attB-ura4-attB plus pLT43, 19 without integrase”, the activity (Ura+ transformants per 10^7 cells) was 1570.

The values above are taken from US20050009182.
